This is an account of results in patent US10597674B2, “HPPD variants and methods of use” (BASF Agricultural Solutions Seed, US LLC, priority 2015, dated 2020).

The test system of this data set is HPPD polypeptides (wild-type SEQ ID NO:1 and mutants). The method, then:
For the generation of crude HPPD polypeptide extract in micro titer plates (MTP) for the determination of residual activity in inhibition assays, cells were grown in 40 or 150 μl LB medium containing 1% Glucose (Merck, Darmstadt, Germany) and 100 μg/ml ampicillin in a standard 96 well plate (Thermo Fisher Scientific, Waltham, USA) incubated for about 18 h in a humidity incubator at 37° C.
30 μl of this starter culture were added to 600 μl LB medium containing 100 μg/ml ampicillin and 150 mM Hepes (Merck, Darmstadt, Germany) as inoculum for the expression culture in 96 well plates (2 ml deep wells; HJ Bioanalytik, Erkelenz, Germany) The plates were sealed by an aluminium foil, and cells were incubated for 5 h at 37° C. on a plate shaker at 750 rpm. The expression was induced by addition of IPTG in a final concentration of 1 mM followed by further sealed incubation for about 18 h at 30° C. on a plate shaker at 750 rpm.
Cells were harvested by centrifugation at 4° C., 2500 g for 15 min discarding the supernatant. Cell pellets were stored at −80° C. and lysed in 250 μl 1× BugBuster® (Merck, Darmstadt, Germany) in 140 mM Tris (pH 7.8), with 1:25000 diluted BNase® (Qiagen, Hilden, Germany) by incubation of the resuspended cells for 30 min at 4° C. and 1000 rpm. Lysates were clarified by centrifugation for 15 min at 4° C., 2500 g, and 150 μl supernatant were transferred in standard 96 well plate (Thermo Fisher Scientific, Waltham, USA) for subsequent testing in quadruplets.
The activity of HPPD polypeptides was determined in absence or presence of HPPD inhibitors using the coupled HPPD activity assay (FIG. 1).
For the determination of the residual activity, the apparent kinetic constant (kapp) of the determined substrate conversion was measured as kinetic changes in absorbance at 320 nm in a coupled assay, in that homogentisate (HGA) formed by HPPD from HPP is directly converted into the well absorbing molecule maleylacetoacetate (MAA) by a second enzyme homogentisate dioxygenase (HGD), applied in excess uniformly in all assays (see FIG. 1). The measurements were performed in 384 micro titer plates (Greiner Bio-One GmbH, Frickenhausen, Germany) by plate readers (Tecan infinite M1000 or M1000PRO, Tecan, Männedorf, Switzerland). The kcat/kM ratio of an enzymatic activity is proportional to the apparent kinetic constant kapp and is proportional to kcat/kM*[E] ([E]=enzyme concentration). […] As both kapp measurements in the presence and absence of inhibitor were performed by use of the identical enzyme sample, crude or purified, and thereby at the same enzyme concentration, the enzyme concentration eliminates from the calculation of residual activity and the ratio of both kapp directly indicates the change of kM due to the inhibition.

Setting [1] is: in the presence of Cmpd. 1, 15 μM inhibitor, high substrate concentration, kapp normalized to kapp without inhibitor.
The mark [2] stands for this setting: in the presence of Cmpd. 1, 15 μM inhibitor, high substrate concentration, total change in signal normalized to no inhibitor.
The mark [3] stands for this setting: in the presence of Cmpd. 2, 15 μM inhibitor, high substrate concentration, kapp normalized to kapp without inhibitor.
[4] abbreviates: in the presence of Cmpd. 2, 15 μM inhibitor, high substrate concentration, total change in signal normalized to no inhibitor.
[5] abbreviates: in the presence of diketonitrile (DKN), 60 μM inhibitor, high substrate concentration, kapp normalized to kapp without inhibitor.
Where [6] appears, read: in the presence of diketonitrile (DKN), 60 μM inhibitor, high substrate concentration, total change in signal normalized to no inhibitor.
Setting [7] is: in the presence of mesotrione (MST), 60 μM inhibitor, high substrate concentration, kapp normalized to kapp without inhibitor.
[8] abbreviates: in the presence of mesotrione (MST), 60 μM inhibitor, high substrate concentration, total change in signal normalized to no inhibitor.
Where [9] appears, read: kapp in presence of 50 μM Cmpd. 1, normalised to kapp without inhibitor, low substrate concentration.
The mark [10] stands for this setting: total change in signal in presence of 50 μM Cmpd. 1, normalised to that without inhibitor, low substrate concentration.

Where two headings read alike, the source gives them in different places.

As for `CS(=O)(=O)c1ccc(C(=O)C2C(=O)CCCC2=O)c([N+](=O)[O-])c1` [mesotrione, 2-[4-(methylsulfonyl)-2-nitrobenzoyl]-1,3-cyclohexanedione, reference compound], the Residual activity reads like this: under setting [1], 9%; under setting [3], 16%; under setting [5], 17%; under setting [7], 13%. Also, the Residual turnover is, setting by setting: under setting [2], 9%; under setting [4], 22%; under setting [6], 17%; under setting [8], 17%.

B1: 16 (protein)
chain: MADLYENPMGLMGFEFIEFASPTPGTLEPIFEIMGFTKVATHRSKNVHLYRQGEINLILNNEPNSIASYFAAEHGPSVCGMAFRVKDSQKAYNRALELGAQPIHIDTGPMELNLPAIKGIGGAPLYLIDRFGEGSSIYDIDFVYLEGVERNPVGAGLKVIDHLTHNVYRGRMVYWANFYEKLFNFREARYFDIKGEYTGLTSKAMSAPDGMIRIPLNEESSKGAGQIEEFLMQFNGEGIQHVAFLTDDLVKTWDALKKIGMRFMTAPSDSYYEMLEGRLPDHGEPVDQLQARGILLDGSSVEGDKRLLLQIFSETLMGPVFFEFIQRKGDDGFGPDSFKVLFESKERDQVRRGVLTAD
modifications: mutant HPPD polypeptide
On to B1, for which the Residual activity is, setting by setting: under setting [1], 45%; under setting [3], 94%; under setting [5], “n.i. (no inhibition was observed under the given conditions)”; under setting [7], 88%. The Residual turnover by setting is: under setting [2], 69%; under setting [4], 94%; under setting [6], “n.i”; under setting [8], 92%.

B2: 60 (protein)
chain: MADLYENPMGLMGFEFIEFASPTPGTLEPIFEIMGFTKVATHRSKNVHLYRQGEINLILNNEPNSIASYFAAEHGPSVCGMAFRVKDSQKAYNRALELGAQPIHIDTGPMELNLPAIKGIGGAPLYLIDRFGEGSSIYDIDFVYLEGVERNPVGAGLKVIDHLTHNVYRGRMVYWANFYEKLFNFREARYFDIKGEYTGLTSKAMSAPDGMIRIPLNEESSKGAGQIEEFLMQFNGEGIQHVAFLTDDLVKTWDALKKIGMRFRTAPGDEYYEMLEGRLPDHGEPVDQLQARGILLDGSSVEGDKRLLLQIFSETLMGPVFFEFIQRKGHDGFGPDSFKVLFEQVERDQVRRGVLTAD
modifications: mutant HPPD polypeptide
B2: under setting [9], the Residual activity was determined as 64%. For the same molecule, the Residual turnover under setting [10] is 84%.

B3: 18 (protein)
chain: MADLYENPMGLMGFEFIEFASPTPGTLEPIFEIMGFTKVATHRSKNVHLYRQGEINLILNNEPNSIASYFAAEHGPSVCGMAFRVKDSQKAYNRALELGAQPIHIDTGPMELNLPAIKGIGGAPLYLIDRFGEGSSIYDIDFVYLEGVERNPVGAGLKVIDHLTHNVYRGRMVYWANFYEKLFNFREARYFDIKGEYTGLTSKAMSAPDGMIRIPLNEESSKGAGQIEEFLMQFNGEGIQHVAFLTDDLVKTWDALKKIGMRFRTAPPDTYYEMLEGRLPDHGEPVDQLQARGILLDGSSVEGDKRLLLQIFSETLMGPVFFEFIQRKGHDGFGPDSFKVLFESIERDQVRRGVLTAD
modifications: mutant HPPD polypeptide
As to B3, the Residual activity was 67% under setting [1], “n.i. (no inhibition was observed under the given conditions)” under setting [3] and “n.i. (no inhibition was observed under the given conditions)” under setting [5]. The Residual turnover by setting is: under setting [2], 79%; under setting [4], “n.i”; under setting [6], “n.i”.

B4: 33 (protein)
chain: MADLYENPMGLMGFEFIEFASPTPGTLEPIFEIMGFTKVATHRSKNVHLYRQGEINLILNNEPNSIASYFAAEHGPSVCGMAFRVKDSQKAYNRALELGAQPIHIDTGPMELNLPAIKGIGGAPLYLIDRFGEGSSIYDIDFVYLEGVERNPVGAGLKVIDHLTHNVYRGRMVYWANFYEKLFNFREARYFDIKGEYTGLTSKAMSAPDGMIRIPLNEESSKGAGQIEEFLMQFNGEGIQHVAFLTDDLVKTWDALKKIGMRFMTAPGDEYYEMLEGRLPDHGEPVDQLQARGILLDGSSVEGDKRLLLQIFSETLMGPVFFEFIQRKGDDGFGPDSFKRLFESVERDQVRRGVLTAD
modifications: mutant HPPD polypeptide
Regarding B4, the Residual activity under setting [9] is 40%. Under setting [10], the Residual turnover worked out at 65%.

B5: 17 (protein)
chain: MADLYENPMGLMGFEFIEFASPTPGTLEPIFEIMGFTKVATHRSKNVHLYRQGEINLILNNEPNSIASYFAAEHGPSVCGMAFRVKDSQKAYNRALELGAQPIHIDTGPMELNLPAIKGIGGAPLYLIDRFGEGSSIYDIDFVYLEGVERNPVGAGLKVIDHLTHNVYRGRMVYWANFYEKLFNFREARYFDIKGEYTGLTSKAMSAPDGMIRIPLNEESSKGAGQIEEFLMQFNGEGIQHVAFLTDDLVKTWDALKKIGMRFMTAPGDEYYEMLEGRLPDHGEPVDQLQARGILLDGSSVEGDKRLLLQIFSETLMGPVFFEFIQRKGDDGFGPDSFKVLFESVERDQVRRGVLTAD
modifications: mutant HPPD polypeptide
For the molecule B5, the Residual activity runs as follows: under setting [1], 43%; under setting [3], 90%; under setting [5], “n.i. (no inhibition was observed under the given conditions)”; under setting [7], 85%; under setting [9], 29%. In addition, the Residual turnover is, setting by setting: under setting [2], 68%; under setting [4], 90%; under setting [6], 95%; under setting [8], 90%; under setting [10], 54%.

B6: 8 (protein)
chain: MADLYENPMGLMGFEFIEFASPTPGTLEPIFEIMGFTKVATHRSKNVHLYRQGEINLILNNEPNSIASYFAAEHGPSVCGMAFRVKDSQKAYNRALELGAQPIHIDTGPMELNLPAIKGIGGAPLYLIDRFGEGSSIYDIDFVYLEGVERNPVGAGLKVIDHLTHNVYRGRMVYWANFYEKLFNFREARYFDIKGEYTGLTSKAMSAPDGMIRIPLNEESSKGAGQIEEFLMQFNGEGIQHVAFLTDDLVKTWDALKKIGMRFMTAPPDTYYEMLEGRLPDHGEPVDQLQARGILLDGSSVEGDKRLLLQIFSETLMGPVFFEFIQRKGDDGFGPDSFKVLFESIERDQVRRGVLTAD
modifications: mutant HPPD polypeptide
With B6, the Residual activity is 21% under setting [1], 67% under setting [3], 91% under setting [5] and 70% under setting [7]. The Residual turnover reads like this: under setting [2], 44%; under setting [4], 74%; under setting [6], 95%; under setting [8], 85%.

B7: 31 (protein)
chain: MADLYENPMGLMGFEFIEFASPTPGTLEPIFEIMGFTKVATHRSKNVHLYRQGEINLILNNEPNSIASYFAAEHGPSVCGMAFRVKDSQKAYNRALELGAQPIHIDTGPMELNLPAIKGIGGAPLYLIDRFGEGSSIYDIDFVYLEGVERNPVGAGLKVIDHLTHNVYRGRMVYWANFYEKLFNFREARYFDIKGEYTGLTSKAMSAPDGMIRIPLNEESSKGAGQIEEFLMQFNGEGIQHVAFLTDDLVKTWDALKKIGMRFMTAPGDEYYEMLEGRLPDHGEPVDQLQARGILLDGSSVEGDKRLLLQIFSETLMGPVFFEFIQRKGDDGFGPHSFKVLFESVERDQVRRGVLTAD
modifications: mutant HPPD polypeptide
B7: the Residual activity reads like this: under setting [1], 40%; under setting [3], 95%; under setting [5], “n.i. (no inhibition was observed under the given conditions)”; under setting [7], 83%; under setting [9], 50%. The Residual turnover runs as follows: under setting [2], 67%; under setting [4], “n.i”; under setting [6], “n.i”; under setting [8], “n.i”; under setting [10], 81%.
